Assay results taken from article PMC4068106.

Target: T1, human C-reactive protein (GMP preparation) (human), P02741
T1 chain: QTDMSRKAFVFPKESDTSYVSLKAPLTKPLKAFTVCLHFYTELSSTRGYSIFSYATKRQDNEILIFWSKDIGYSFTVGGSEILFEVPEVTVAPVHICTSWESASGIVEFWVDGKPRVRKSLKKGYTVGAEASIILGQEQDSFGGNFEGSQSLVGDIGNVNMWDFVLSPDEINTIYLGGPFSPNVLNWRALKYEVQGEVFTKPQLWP
Experiment: SEC; 0.02 mg in 100 uL on Superdex 200, 0.5 mL/min, 10 mM Tris, 140 mM NaCl, 2 mM CaCl2, pH 8.0; self-assembly of CRP
Settings: remark: other sources report otherwise

B1: human C-reactive protein (GMP preparation), P02741 19-224 (natural protein)
chain: T1 chain
modifications: here or on the partner: N-terminal PCA; N-terminal PCA
B1 showed a stoichiometry N of 5.
